Common to all, as to assay type: biochemical
Test [1] concerns the target T1, pre-assembled amyloid plaque like complexes (iron-loaded abeta42 templates) (Homo sapiens, UniProt P00747).
T1 construct: Lys-Plasminogen (PLG); purchased Enzyme Research Laboratories (IN, USA)
As to the kind of experiment: Dissolution of pre-assembled amyloid plaque like complexes. Conditions: 20 ng, 37° C., 1 hr. How it is done: In order to identify lead compounds able to dissolve the pre-assembled amyloid plaque like complexes, the preceding experiments are repeated to assemble complexes in three cycles using the iron-loaded abeta42 templates. Then, 50 μl of the resulting complexes is incubated with test compound/s (50 ng to 1 μg) for 1 hr at 37° C. followed by washing and analysis of the complexes for their dissolution. For example, 50 μl of the pre-assembled complexes is mixed with u-PA or t-PA (20 ng) at 37° C. for 1 hr followed by washing and protein estimation or gel analysis of the resultant complexes. […] This approach is also useful to optimize u-PA (PGN54) molecule for use as a therapeutic lead to treat patients with advanced amyloid diseases such as Alzheimer. Reducing the amyloid plaque burden or plaque build-up in the cerebral arteries would greatly improve or reverse the pathological symptoms associated with the amyloid diseases. In addition, to test the hypothesis of amyloid plaque burden reduction as an effective strategy, optimized u-PA or other plasminogen activators are used in the animal models of Alzheimer's disease.

Test [2] deals with T2, iron-loaded abeta40 templates plaque complex (Homo sapiens, UniProt P00747).
T2 construct: Lys-Plasminogen (PLG); purchased Enzyme Research Laboratories (IN, USA)
Briefly: Proteolysis of plaque complexes assembled on iron-loaded abeta40 templates. How it is done: In order to verify the preceding results, such experiments are repeated using iron-loaded abeta40 templates for plaque complex formation. Proteins binding to the abeta40 templates appear to be cleared when they are treated with the same proteases.

The test system of test [3] is thrombus generated from the in vitro assembled plaques complexes. Briefly: Thrombolytic assay with PLG cascade proteins. Conditions: thrombus from cholesterol, lipids, CP and CO complexes. How it is done: To examine this, both PLG and PLG activators are used to target these clots. Thrombolytic assays are carried out in 100 μl reaction containing thrombus, generated from 100 μl of aggregates or plaque complexes, 1 μg of PLG and 20 ng of u-PA or t-PA in PBS buffer. The reactions are incubated at 37° C. for 1 hr and after every 15 min the tubes are gently tapped to mix the contents. After 1 hr incubation, 1 ml of PBS is added to all the tubes and the samples are visually examined for dissolution of the thrombus.
The thrombus generated from the cholesterol, lipids, CP, and CO complexes are incubated separately with PLG, u-PA and t-PA to examine whether these proteins individually could dissolve the clots.
This could be due to the inhibition of u-PA by the PAI-1 thereby preventing the activation of the PLG. In the next experiment, the aggregates of CP-Cholesterol, CP-Lipids, CP-Cholesterol-Lipids, Cholesterol-Lipids, CO-Cholesterol and CO-Lipids are individually used in CPA for five cycles to assemble complexes followed by their thrombus generation.
The example depicted in FIG. 18 illustrates the dissolution of thrombi by PLG and u-PA. […] Both the clots and the dissolved complexes are further examined under microscope to confirm the visual examination (FIGS. 18a, b, c and d). The thrombus formed in the urine is also dissolved by the action of PLG and u-PA.

Test [4] deals with iron loaded abeta42 aggregates mixed with CE proteins. Briefly: Proteolysis of amyloid plaque complexes assembled on iron loaded abeta42 aggregates. The note with it: 20 ng. How it is done:
This example illustrates the use of the invention to evaluate the proteolytic degradation of the amyloid complexes. For example, iron loaded abeta42 aggregates are mixed with CE proteins, and the resulting template complexes are treated with five different serine proteases. More specifically, nine independent reactions are carried out with each containing 5.0 μg of the iron-loaded aggregates of abeta42 and 6.0 μg of the CE proteins. After incubation and washing, the complexes are suspended in 50 μl of PBS. The nine complexes are sub-divided into two groups, with six individual complexes comprising Group I and three complexes comprising Group II. In order to interrogate the role of the plasminogen (PLG) activation system, which is implicated in the catabolism of amyloid peptides as well as the pathobiology of amyloid diseases (Melchor J P et al, 2003; Van Nostrand W E et al, 1999; Kranenburg O, 2005), the Group II complexes are subjected to another cycle of binding with both PLG (0.5 μg) and BSA (0.5 μg) proteins. After binding and washing, the PLG and BSA bound plaques complexes are suspended in 50 μl of PBS.
For proteolysis analysis, five of the six Group I template complexes are incubated with 20 ng of each protease (plasnin, chymotrypsin, trypsin, proteinase K and urokinase). The remaining complex is used as a control without protease treatment. Among three complexes of the Group II containing PLG attached to them, one is treated with u-PA (20 ng), a second is treated with t-PA (20 ng) and the third complex is used as a control without protease treatment. All these plaque complexes are incubated at 37° C. for 1 hr and after every 15 min, the tubes are gently tapped in order to encourage mixing. After washing, both the proteases-treated and control plaque complexes are suspended in 20 μl PBS. The complexes are boiled for 10 min with sample solubilizing buffer and loaded in to 4-20% gradient SDS-PAGE. Further, the gels are processed for silver staining and the results are documented for further analysis.

Results on one substance are retold here after patent publication US8932558B2, “Multi-subunit biological complexes for treatment of plaque-associated diseases” (Plaxgen Inc, priority 2007, dated 2015).

T2 sequence (P00747 97-810, one chain of several): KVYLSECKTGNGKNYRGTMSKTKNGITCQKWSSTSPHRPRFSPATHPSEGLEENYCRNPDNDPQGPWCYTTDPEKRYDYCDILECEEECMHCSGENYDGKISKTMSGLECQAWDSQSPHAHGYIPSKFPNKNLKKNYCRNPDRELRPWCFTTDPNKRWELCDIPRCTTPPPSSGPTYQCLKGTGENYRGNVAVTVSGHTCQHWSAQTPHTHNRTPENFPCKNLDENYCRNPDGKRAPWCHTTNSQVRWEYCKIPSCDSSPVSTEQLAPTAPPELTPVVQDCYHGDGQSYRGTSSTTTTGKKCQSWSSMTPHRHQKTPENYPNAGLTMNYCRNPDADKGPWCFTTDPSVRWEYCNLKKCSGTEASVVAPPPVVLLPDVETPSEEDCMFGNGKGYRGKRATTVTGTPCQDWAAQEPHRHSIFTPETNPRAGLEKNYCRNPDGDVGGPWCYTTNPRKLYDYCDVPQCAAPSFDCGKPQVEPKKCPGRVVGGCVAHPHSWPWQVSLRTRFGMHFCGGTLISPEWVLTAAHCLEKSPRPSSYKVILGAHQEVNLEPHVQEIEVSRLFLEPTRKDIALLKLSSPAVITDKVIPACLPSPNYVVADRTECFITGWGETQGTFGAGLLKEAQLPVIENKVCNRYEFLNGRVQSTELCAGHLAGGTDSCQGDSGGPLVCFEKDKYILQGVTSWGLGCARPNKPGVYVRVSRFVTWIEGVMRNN
T1 sequence (P00747 97-810, one chain of several): as above

Take t-PA: tissue-type plasminogen activator: the “Protein concentration of pre-assembled complexes after incubation” value in test [1] is “show reduction in the protein concentration”. Besides, the “Activation of PLG-bound complex” value in test [2] is “activate the PLG-bound complex”. The “Dissolution of thrombus, protein incubated separately” value in test [3] was “did not show any dissolution”. Further, the “Activation of PLG on PLG/BSA-attached complexes” value in test [4] was “the inactive PLG is converted into active plasmin”.
